Measured values reported in publication PMC3214626.

Molecular target: Slc1-FLAG (SycE-like chaperone 1; CT043) (Chlamydia trachomatis)
Assay: SEC

Slc1-FLAG (SycE-like chaperone 1; CT043) (natural protein)
stoichiometry N: 2
